# Measurements as given in paper PMC13013135, “[^99mTc]Tc-PSMA-HSG for PSMA-targeted Hybrid Surgical Guidance: a new addition to the PSMA-I&S/I&T family” (European Journal of Nuclear Medicine and Molecular Imaging, 2025).
# Legend:
# [1] = human, in vivo
# Method: [^99mTc]Tc-PSMA-HSG scans were performed using a GE Discovery NM/CT 670 Pro (GE Healthcare, Milwaukee, USA; n = 4) or Siemens Symbia T2 (Siemens Healthineers, Erlangen, Germany; n = 1) system. For dosimetry, planar dynamic whole body scans were performed at 5 min and 1 h after injection with a bed speed of 30 cm/min; and at 3–4 h and 20 h after injection with a speed of 12 cm/min. At 3–4 h and 20 h after injection additional SPECT/CT imaging was acquired. Attenuation maps were generated on the basis of low-dose CT. For a detailed protocol of imaging parameters and the dosimetry protocol please refer to the Supplementary Material.
# The planar and SPECT/CT images per time point were processed using syngo.via (Siemens Healthineers, Erlangen, Germany). Organs were segmented on the accompanying CT of the SPECT/CT of each imaging time point to avoid errors due to misalignment during image registration. Segmented organs included gallbladder, muscle, heart, kidneys, liver, lungs, pancreas, spleen, stomach, and urinary bladder on the SPECT/CT. For bone marrow dosimetry, spherical volumes of interest (VOIs) were placed in lumbar vertebrae L2 to L4 [8]. Salivary glands and their background were manually segmented on the anterior view of the planar whole-body scans. Region-wise image statistics were extracted into spreadsheets including administered activity and the time interval between administration and imaging start.
# Count statistics were converted into units of Becquerel by using the decay-corrected reference activity source that was within the field of view (FOV) of each imaging acquisition. Percentage injected activities per time were entered into MIRDfit v1.01 for fitting the time-activity data. The trapezoidal method with zero activity at time zero and physical decay extrapolation after the last time point was used for the data with only two SPECT acquisitions and monoexponential fitting was used for the three SPECT acquisitions and if the fit R² was greater than 0.97. The salivary glands with available data from four planar images were fitted biexponentially if R² was greater than 0.97. The bladder was modelled in MIRDfit assuming effective half-life, two time points and a 3 h voiding interval. The resulting time integrated activity coefficients (TIACs, unit of hours) were entered in MIRDcalc v1.22 [10] for dosimetry calculations and patient-individual organ masses for kidneys, liver, pancreas, spleen and estimate for red marrow were used for S-value adjustments.
# [2] = in vivo; conditions: mouse, in vivo
# Method: The biodistribution of [^99mTc]Tc-PSMA-HSG and of the reference compound [^99mTc]Tc-PSMA-I&S was investigated in LNCaP xenograft bearing NSG mice (see supplemental information).
# Mice were injected intravenously with the respective ^99mTc-labeled tracer (24–34 MBq (fixed peptide dose of 1 nmol/mouse) or 3.7–7.6 MBq (fixed peptide doses of 0.1 nmol/mouse), respectively) and were sacrificed at 2 h (1 nmol-cohort) or 6 h p.i. (0.1 nmol-cohort), respectively. The organs of interest were dissected, and the activity concentration in weighed tissue samples was quantified using an AMG Automatic Gamma Counter (Hidex, Turku, Finland). Biodistribution data are given in %iD/g and represent means ± SD (groups of n = 5 animals). Statistical analysis (Multiple unpaired t-test) of biodistribution data and tumor/organ ratios was performed using GraphPad Prism (Boston, USA).
# To induce LNCaP tumor growth, a suspension of LNCaP cells (approx. 5 x 10^6 cells/mouse) in 200 μl of a 1:1 mixture of serum-free DMEM and Matrigel (BD Biosciences) was injected subcutaneously into the right shoulder of male NOD scid gamma (NSG) mice (6-8 weeks, in-house breeding, Dpt. of Oncology, University of Lausanne). After approximately 9 weeks, tumor size reached 4-8 mm in diameter and the mice were used for the in vivo studies.
smiles,measurement,setting,value
"C[N+]1=C(/C=C/C=C/C=C2/N(CCCCCC(=O)NCCCC[C@@H](NC(=O)[C@@H](CO)NC(=O)[C@@H](CO)NC(=O)[C@@H](CO)NC(=O)CS)C(=O)N[C@H](Cc3ccc(O)cc3)C(=O)N[C@H](Cc3ccc4ccccc4c3)C(=O)N[C@H](CCCCNC(=O)CCCCCCC(=O)NCCCC[C@H](NC(=O)N[C@@H](CCC(=O)O)C(=O)O)C(=O)O)C(=O)O)c3ccc(S(=O)(=O)[O-])cc3C2(C)C)C(C)(C)c2cc(S(=O)(=O)O)ccc21 [[^99mTc]Tc-PSMA-HSG, metal not drawn]",Absorbed dose coefficient of salivary glands from planar images,[1],0.007 ± 0.004 mGy/MBq
same,"Absorbed dose coefficient of salivary glands from planar images, max",[1],0.013 mGy/MBq
same,"Absorbed dose coefficient of salivary glands from planar images, min",[1],0.005 mGy/MBq
same,"Absorbed dose, Brain",[1],0.000 mGy/MBq
same,"Absorbed dose, ET1 airway basal cells",[1],0.000 mGy/MBq
same,"Absorbed dose, Eye lens",[1],0.000 mGy/MBq
same,"Absorbed dose, Lymph nodes - extrathoracic",[1],0.001 mGy/MBq
same,"Absorbed dose, Tonsils",[1],0.001 mGy/MBq
same,"Organ TIAC, Bone marrow - red (active)",[1],0.412 h
same,"Organ TIAC, Gallbladder content",[1],0.015 h
same,"Organ TIAC, Heart content",[1],0.164 h
same,"Organ TIAC, Lungs",[1],0.360 h
same,"Organ TIAC, Muscle",[1],1.230 h
same,"Organ TIAC, Pancreas",[1],0.035 h
same,"Organ TIAC, Spleen",[1],0.096 h
same,"Organ TIAC, Stomach content",[1],0.090 h
same,effective dose for a typically injected activity,[1],7.9 mSv
same,tissue uptake at 6 h,"[2]; male, NOD scid gamma (NSG), iv, 0.1 nmol/mouse, total radioactivity, biodistribution, liver",2.5 ± 0.4 %ID/g
same,tissue uptake at 6 h,"[2]; male, NOD scid gamma (NSG), iv, 0.1 nmol/mouse, total radioactivity, biodistribution, lung",2.5 ± 0.5 %ID/g
same,tissue uptake at 6 h,"[2]; male, NOD scid gamma (NSG), iv, 0.1 nmol/mouse, total radioactivity, biodistribution, pancreas",0.8 ± 0.3 %ID/g
same,tissue uptake at 6 h,"[2]; male, NOD scid gamma (NSG), iv, 0.1 nmol/mouse, total radioactivity, biodistribution, spleen",9.7 ± 3.8 %ID/g
same,tissue uptake at 6 h,"[2]; male, NOD scid gamma (NSG), iv, 0.1 nmol/mouse, total radioactivity, biodistribution, stomach",1.1 ± 0.2 %ID/g
same,tissue uptake at 2 h,"[2]; male, NOD scid gamma (NSG), iv, 1 nmol/mouse, total radioactivity, biodistribution, liver",3.3 ± 0.3 %ID/g
same,tissue uptake at 2 h,"[2]; male, NOD scid gamma (NSG), iv, 1 nmol/mouse, total radioactivity, biodistribution, lung",2.8 ± 0.3 %ID/g
same,tissue uptake at 2 h,"[2]; male, NOD scid gamma (NSG), iv, 1 nmol/mouse, total radioactivity, biodistribution, pancreas",0.8 ± 0.1 %ID/g
same,tissue uptake at 2 h,"[2]; male, NOD scid gamma (NSG), iv, 1 nmol/mouse, total radioactivity, biodistribution, spleen",5.2 ± 1.9 %ID/g
same,tissue uptake at 2 h,"[2]; male, NOD scid gamma (NSG), iv, 1 nmol/mouse, total radioactivity, biodistribution, stomach",1.6 ± 0.1 %ID/g
same,tissue to tissue ratio at 6 h,"[2]; male, NSG, iv, 0.1 nmol/mouse, total radioactivity",0.12 ± 0.02
same,tissue uptake at 6 h,"[2]; male, NSG, iv, 0.1 nmol/mouse, total radioactivity, biodistribution, LNCaP tumor",19.8 ± 6.6 %ID/g
same,tissue uptake at 6 h,"[2]; male, NSG, iv, 0.1 nmol/mouse, total radioactivity, biodistribution, blood",1.3 ± 0.3 %ID/g
same,tissue uptake at 6 h,"[2]; male, NSG, iv, 0.1 nmol/mouse, total radioactivity, biodistribution, heart",0.7 ± 0.2 %ID/g
same,tissue uptake at 6 h,"[2]; male, NSG, iv, 0.1 nmol/mouse, total radioactivity, biodistribution, intestines",1.3 ± 0.2 %ID/g
same,tissue uptake at 6 h,"[2]; male, NSG, iv, 0.1 nmol/mouse, total radioactivity, biodistribution, kidneys",148 ± 17 %ID/g
same,tissue uptake at 6 h,"[2]; male, NSG, iv, 0.1 nmol/mouse, total radioactivity, biodistribution, muscle",0.4 ± 0.06 %ID/g
same,tissue uptake at 6 h,"[2]; male, NSG, iv, 0.1 nmol/mouse, total radioactivity, biodistribution, salivary glands",4 ± 1.2 %ID/g
same,tissue to tissue ratio at 2 h,"[2]; male, NSG, iv, 1 nmol/mouse, total radioactivity",0.2 ± 0.03
same,tissue uptake at 2 h,"[2]; male, NSG, iv, 1 nmol/mouse, total radioactivity, biodistribution, LNCaP tumor",12.1 ± 0.9 %ID/g
same,tissue uptake at 2 h,"[2]; male, NSG, iv, 1 nmol/mouse, total radioactivity, biodistribution, blood",2.4 ± 0.3 %ID/g
same,tissue uptake at 2 h,"[2]; male, NSG, iv, 1 nmol/mouse, total radioactivity, biodistribution, heart",1.3 ± 0.2 %ID/g
same,tissue uptake at 2 h,"[2]; male, NSG, iv, 1 nmol/mouse, total radioactivity, biodistribution, intestines",1 ± 0.1 %ID/g
same,tissue uptake at 2 h,"[2]; male, NSG, iv, 1 nmol/mouse, total radioactivity, biodistribution, kidneys",61.7 ± 7.2 %ID/g
same,tissue uptake at 2 h,"[2]; male, NSG, iv, 1 nmol/mouse, total radioactivity, biodistribution, muscle",0.5 ± 0.04 %ID/g
same,tissue uptake at 2 h,"[2]; male, NSG, iv, 1 nmol/mouse, total radioactivity, biodistribution, salivary glands",4.2 ± 0.5 %ID/g
same,tissue uptake at 6 h,[2]; Tumor uptake in mice,11.8 ± 1.5 %ID/g
